Where a chain is given by its changes, count along the chain named.
Biological target: RBD-biotin
Test: BLI

B1: Ab 25 (Fc fusion)
VH: QVQLVQSGGGLVQPGGSLRLSCAASGFTFSSYWMSWVRQAPGKGLEWVANIKQDGSEKYYVDSVKGRFTISRDNAKNSLYLQMNSLRAEDTAVYYCARGFYYYGAFDIWGQGTTVTVSS
VL: NFMLTQPHSVSESPGKTVTISCTGSSGSIASNYVQWYQQRPGSAPTTVIYEDNQRPSGVPDRFSGSIGSSSNSASLTISGLKTEDEADYYCQSYDSSNHWVFGGGTKLTVL
For B1, the Kd was 0.223 nM.

B2: Ab 18 (scFv, V domains shown)
VH: EVQLVQSGGGVVQPGRSLRVSCAASGFSFSRYGMHWVRQAPGKGLEWVAFIRHDGSKKYYADSVEGRFTISRDNSRNTVSLEMNSLRGEDTAVYYCAKDGRLEAALDDWGQGTLVTVSS
VL: NFMLTQPHSMSGSAGKTVTVSCIRSSGSIANNFVQWYQQRPGSAPTTVIYEDNQRPSGVPDRFSGSIDSSSNSASLTISGLKTEDEADYYCQSYDSSNLVFGGGTRLTVL
For B2, the Kd was 2.31 nM.

B3: Ab 17 (scFv, V domains shown)
VH: QVQLVQSGGGVVQPGRSLRLSCAASGFTFDDYAMHWVRQVPGKGLEWVSGIDWNSGVIGYADSVKGRFTISRDNVKNSLYLQMNSLRTEDSALYYCAKDIGPGGSGSYYAFDIWGQGTTVTVSS
VL: QSALTQPASVSGSPGQSITISCTGTSSDVGGSKYVSWYQQHPGKAPKVMIYDVTKRPSGVPDRFSGSKSGNTASLTISGLQAEDEADYYCAAWDDSLNGVVFGGGTKLTVL
With B3 the Kd was 0.882 nM.

B4: Ab 13 (scFv, V domains shown)
VH: QVTLKESGPKLVKPTQTLTLTCTFSGFSLSTSGVGVGWIRQPPGKALEWLALIYWDDDKRYSPSLKSRLTIAKDTSKYQVVLTMTNMDPVDTATYYCARISGSGYFYPFDIWGQGTMVTVSA
VL: B1 VL with G24R, G68D, H99L
B4 gave a Kd of 0.922 nM.

B5: Ab 23 (Fc fusion)
VH: EVQLVQSGAEVKKPGSSVKVSCRSSGGTFSTYGITWVRQAPGQGLEWMGRIIPSLGIPNYAQKFQGRVTITADTSVSTAWMELSSLESDDTAIYYCARENIDLATNDFWGQGTLVTVSS
VL: QSALTQPPSASGSPGQSVTISCTGTSRDIGAYGYVSWYQQVPGKAPKLIIYEVRNRPSGVSSRFSGSKSGNTASLTISGLQAEDEADYYCSSYTSSSTLDVVFGGGTKLTVL
B5 was tested, and the Kd was under 0.001 nM.

B6: Ab 20 (scFv, V domains shown)
VH: QVQLVQSGGGSVKPGGSLRLSCAASGYRLSDYYMHWVRQAPGKGLEWVANIKQDGSEKYYVDSVKGRFTISRDNAKNSLYLQMNSLRAEDTAVYYCARVRGWSRGYFDYWGQGTLVTVSS
VL: B1 VL with G68D, T77L
Binder B6 has a Kd of 1.9 nM.

B7: Ab 27 (Fc fusion)
VH: QVQLVQSGTEVKKPGASVKVSCKASGYSFTGSHLHWVRQAPGQGLEWMGWINPDSGVINYAQKFQGRVTLTRDTSISTAYMELSGLRSDDTAVYYCARDKAIGYVWALDYWGQGTLVTVSS
VL: QSALTQPPSVSGSPGQSVTISCTGTSSDVGTYNRVSWYQQPPGKAPKLMIYEVSNRPSGVSNRFSGSKSGNTASLTISGLQAEDEADYYCSSYTRTFTYVFGTGTKVTVL
B7 was tested, and the Kd was 0.906 nM.

B8: Ab 21 (scFv, V domains shown)
VH: QVQLVQSGGGLVQPGGSLRLSCATSGFTFDDYAMHWVRQAPGKGLEWVSGISWNSGSIGYVDSVKGRFTISRDNRNNKVYLQMNNLRAEDTAVYYCARDWWGSIDHWGLGTLVTVSS
VL: QSALTQPRSVSGSPGQSVTISCTGTSSDVGGYDYVSWYQQHPGKAPKLIIYDVSKRPSGVPDRFSGSKSGNTASLTVSGLQAEDEADYYCSSYTSSSPVVFGGGTKLTVL
B8 was tested, and the Kd was 1.48 nM.

B9: Ab 15 (Fc fusion)
VH: QVQLVQSGGGLVKPGRSLRLSCTASGFTFGDYAMSWFRQAPGKGLEWVGFIRSKAYGGTTGYAASVKGRFTISRDDSKSIAYLQMNSLKTEDTAVYYCTTADDDMDVWGKGTTVTVSS
VL: NFMLTQPHSVSESPGKTVTISCTRSSGTIASNYVQWYQQRPGSAPTTVIYEDNQRPSGVPDRFSGSIDRSSNSASLTISGLTPDDEADYYCQSYDTSNHYVFGTGTKVTVL
B9 was tested, and the Kd was 6.61 nM.

B10: Ab 16 (scFv, V domains shown)
VH: QVQLVQSGGGVVQPGRSLRLSCAASGFTFSNYGMHWVRQAPGKGLEWVALIWERGSKKDYADSVKGRFTVSRDNSKNTLYLQMNSLRPEDTAVYFCAREGISMTGAEYFQHWGQGTLVTVSS
VL: QSVLTQPPSVSGSPGQRVTMSCTGSSSNIGAGYDVHWYQQVPGAAPRLLIYGTNNRPSGVPDRFSGSKSGTSASLTITGLQAEDEADYYCQSYDNSLTDPYVFGTGTKVTVL
Work on B10 yielded a Kd of 0.959 nM.

Source: patent US20240409617A1 (published 2024)
